Test [1] concerns the target anti-CD20 IgG1 L234S/L235T/G236R (human). As to the kind of experiment: SPR; antibody captured by biotin-labelled anti-human κ light chain on streptavidin CM5; soluble Fcγ receptor injected at one concentration ([…] to 18 μM); HBS-EP+ pH 7.4, 25°C; Biacore 8K. (In general: Surface plasmon resonance follows binding to a sensor surface in real time, without labels.)
The target is the same in test [2]. Described as above. The source holds these as a separate data set.
Test [3] addresses human FcγRIIIa (CD16a) F158 allele, histidine-tagged recombinant (human) (UniProt P08637). As to the kind of experiment: SPR; His-tagged Fc receptor captured by anti-histidine antibody immobilised on CM5; antibody injected at 100 μg/mL for 1 min; response about 5 s before end of injection, blank subtracted; 25°C, HBS-EP+; Biacore T200.
In test [4] the target is human FcγRIIIa (CD16a) V158 allele, histidine-tagged recombinant (human) (UniProt P08637). The description is as above.
For test [5], the target named is rat FcγRI (CD64), histidine-tagged recombinant (rat). The test is described as above.
Setting [6] is: remark: other sources report otherwise.

Read-outs that look alike come from different tables or passages of the source.

B1: cynomolgus monkey FcγRIII extracellular domain, C-terminal hexa-His (receptor)
chain: GMRAEDLPKAVVFLEPQWYRVLEKDRVTLKCQGAYSPEDNSTRWFHNESLISSQTSSYFIAAARVNNSGEYRCQTSLSTLSDPVQLEVHIGWLLLQAPRWVFKEEESIHLRCHSWKNTLLHKVTYLQNGKGRKYFHQNSDFYIPKATLKDSGSYFCRGLIGSKNVSSETVNITITQDLAVSSISSFFPPGYQ
B1 had a response in test [1] (setting [6]) of under 1 RU.

B2: mouse FcγRIIb extracellular domain, C-terminal hexa-His (receptor)
chain: THDLPKAVVKLEPPWIQVLKEDTVTLTCEGTHNPGNSSTQWFHNGRSIRSQVQASYTFKATVNDSGEYRCQMEQTRLSDPVDLGVISDWLLLQTPQLVFLEGETITLRCHSWRNKLLNRISFFHNEKSVRYHHYSSNFSIPKANHSHSGDYYCKGSLGRTLHQSKPVTITVQGPKSSRSLP
Take B2: the response in test [2] was under 1 RU.

B3: mouse FcγRIII extracellular domain, C-terminal hexa-His (receptor)
chain: ALPKAVVKLDPPWIQVLKEDMVTLMCEGTHNPGNSSTQWFHNGRSIRSQVQASYTFKATVNDSGEYRCQMEQTRLSDPVDLGVISDWLLLQTPQRVFLEGETITLRCHSWRNKLLNRISFFHNEKSVRYHHYKSNFSIPKANHSHSGDYYCKGSLGSTQHQSKPVTITVQDPATTSSISLVWYHT
In the case of B3, the response in test [2] was under 1 RU.

B4: human FcγRIIa H131 extracellular domain, C-terminal hexa-His (independently-made panel), P12318 34-217 (receptor)
chain: QAAAPPKAVLKLEPPWINVLQEDSVTLTCQGARSPESDSIQWFHNGNLIPTHTQPSYRFKANNNDSGEYTCQTGQTSLSDPVHLTVLSEWLVLQTPHLEFQEGETIMLRCHSWKDKPLVKVTFFQNGKSQKFSHLDPTFSIPQANHSHSGDYHCTGNIGYTLFSSKPVTITVQVPSMGSSSPMG
As to B4, the response in test [1] (setting [6]) was under 1 RU.

B5: human FcγRIIa R131 extracellular domain, C-terminal hexa-His (independently-made panel), P12318 34-217 (receptor)
chain: QAAAPPKAVLKLEPPWINVLQEDSVTLTCQGARSPESDSIQWFHNGNLIPTHTQPSYRFKANNNDSGEYTCQTGQTSLSDPVHLTVLSEWLVLQTPHLEFQEGETIMLRCHSWKDKPLVKVTFFQNGKSQKFSRLDPTFSIPQANHSHSGDYHCTGNIGYTLFSSKPVTITVQVPSMGSSSPMG
modifications: not checked
In the case of B5, the response in test [1] was under 1 RU.

B6: mouse FcγRI extracellular domain, C-terminal hexa-His (independently-made panel) (receptor)
chain: EVVNATKAVITLQPPWVSIFQKENVTLWCEGPHLPGDSSTQWFINGTAVQISTPSYSIPEASFQDSGEYRCQIGSSMPSDPVQLQIHNDWLLLQASRRVLTEGEPLALRCHGWKNKLVYNVVFYRNGKSFQFSSDSEVAILKTNLSHSGIYHCSGTGRHRYTSAGVSITVKELFTTPVLRASVSSPFPEGSLVTLNCETNLLLQRPGLQLHFSFYVGSKILEYRNTSSEYHIARAEREDAGFYWCEVATEDSSVLKRSPELELQVLGPQSSAP
Turning to B6, in test [2], the response was under 1 RU.

B7: anti-CD52 IgG1 L234A/L235A (LALA) (antibody, V domains shown)
VH: QVQLQESGPGLVRPSQTLSLTCTVSGFTFTDFYMNWVRQPPGRGLEWIGFIRDKAKGYTTEYNPSVKGRVTMLVDTSKNQFSLRLSSVTAADTAVYYCAREGHTAAPFDYWGQGSLVTVSS
VL: DIQMTQSPSSLSASVGDRVTITCKASQNIDKYLNWYQQKPGKAPKLLIYNTNNLQTGVPSRFSGSGSGTDFTFTISSLQPEDIATYYCLQHISRPRTFGQGTKLEIK
B7: the mean response in test [3] was 17 RU; in test [4], 63.2 RU.

B8: anti-CD52 IgG1 N297Q (aglycosyl) (antibody, V domains shown)
VH: QVQLQESGPGLVRPSQTLSLTCTVSGFTFTDFYMNWVRQPPGRGLEWIGFIRDKAKGYTTEYNPSVKGRVTMLVDTSKNQFSLRLSSVTAADTAVYYCAREGHTAAPFDYWGQGSLVTVSS
VL: DIQMTQSPSSLSASVGDRVTITCKASQNIDKYLNWYQQKPGKAPKLLIYNTNNLQTGVPSRFSGSGSGTDFTFTISSLQPEDIATYYCLQHISRPRTFGQGTKLEIK
Consider B8, for which the mean response in test [5] stood at 488 RU.

The record behind these values is paper PMC8691596.
